Earlier results in patent US20240082365A1, “MULTIDISCIPLINARY TREATMENT OF CHRONIC DISEASE USING REGENERATIVE CELLS AND TECHNOLOGIES” (priority 2022, published 2024).

Legend:
[1] = tested on: metastatic renal cell carcinoma (RCC) and metastatic melanoma; conditions: high-dose, e.g. IV bolus 600,000 IU/kg every 8 hours for up to 14 doses
[2] = subcutaneous, one-compartment model

For aldesleukin, the “time at which peak plasma levels are reached” value (after SC administration) is given as 2 to 6 h, the absorption half-life [2] is given as 0.75 h and the elimination half-life [2] is given as 3 to 5 h. For the same substance, the antitumor activity [1] was “demonstrated antitumor activity”.
